Test results as given in patent publication CN117736316A.

Molecular target: HIS-SFTSV-NP抗原 (recombinant SFTSV NP antigen expressed in E. coli BL21(DE3) from pET-30a) (新布尼亚病毒 (SFTSV))
Assay: indirect ELISA, NP antigen coated

B1: 单克隆抗体anti-SFTSV-NP-mab1 (antibody, V domains shown)
VH: EVQLEESGGGLVQPGGSRKLSCAVSGFTFSNFGIHWVRQAPEKGLEWVAYISSGGTTIYYADTVKGRFTISRDNPMNTLFLQMTSLRSEDTAMYHCARSDYFGMMDYWGQGTSVTVSS
VL: DIVITQTPSSLSASLGDRVTISCRASQDIRNYLNWYQQKPDGTVKLLVYYTSRLHSGVPSRFSGSGSGTDFSLTISNLEQEDIATYFCQQAHTLLTFGAGTKLEIK
工作浓度: 15.6 ng/mL
检测限 (of NP protein): 1.95 ng/mL
